Test results reported in the RNAGym collection of RNA variant scans (doi:10.1101/gr.219683.116).

B1: mRNA-splicing (parent)
chain: AGUUGCUGCUGGGAGCUCCAGCACAGUGAAAUGGACAGAAGGGCAGAGCAA

Variants of: B1
Assay: exon inclusion enrichment index; higher = more inclusion; WT1 exon 5 minigene, HEK293

Variant | exon inclusion enrichment index
AGUUAGGGACCGGAGCUCCAGCACAGUGAAAUGGACAGAAGGGCAGAGCAA | 0.0142
AGUUAGGGACUGGAGCUCCAGCACAGUGAAAUGGACAGAAGGGCAGAGCAA | 0.0108
AGUUAGGGAGGGGAGCUCCAGCACAGUGAAAUGGACAGAAGGGCAGAGCAA | 0.00589
AGUUAGGGAGAGGAGCUCCAGCACAGUGAAAUGGACAGAAGGGCAGAGCAA | 0.00349
AGUUAGGGAGCGGAGCUCCAGCACAGUGAAAUGGACAGAAGGGCAGAGCAA | 0.00673
AGUUAGGGAGUGGAGCUCCAGCACAGUGAAAUGGACAGAAGGGCAGAGCAA | 0.00152
AGUUAGGGAUGGGAGCACCAGCACAGUGAAAUGGACAGAAGGGCAGAGCAA | 0.00695
AGUUAGGGAUGGGAGCAACAGCACAGUGAAAUGGACAGAAGGGCAGAGCAA | 0.00127
AGUUAGGGAUGGGAGCAGCAGCACAGUGAAAUGGACAGAAGGGCAGAGCAA | 0.00136
AGUUAGGGAUGGGAGCAUCAGCACAGUGAAAUGGACAGAAGGGCAGAGCAA | 0.00863
AGUUAGGGAUGGGAGCCCCAGCACAGUGAAAUGGACAGAAGGGCAGAGCAA | 0.00172
AGUUAGGGAUGGGAGCCACAGCACAGUGAAAUGGACAGAAGGGCAGAGCAA | 0.00107
AGUUAGGGAUGGGAGCCGCAGCACAGUGAAAUGGACAGAAGGGCAGAGCAA | 0.00304
AGUUAGGGAUGGGAGCCUCAGCACAGUGAAAUGGACAGAAGGGCAGAGCAA | 0.00126
AGUUAGGGAUGGGAGCGCCAGCACAGUGAAAUGGACAGAAGGGCAGAGCAA | 0.00284
AGUUAGGGAUGGGAGCGACAGCACAGUGAAAUGGACAGAAGGGCAGAGCAA | 0.00242
AGUUAGGGAUGGGAGCGGCAGCACAGUGAAAUGGACAGAAGGGCAGAGCAA | 0.00151
AGUUAGGGAUGGGAGCGUCAGCACAGUGAAAUGGACAGAAGGGCAGAGCAA | 0.00166
AGUUAGGGAUGGGAGCUCCAGCACAGAGAAAUGGACAGAAGGGCAGAGCAA | 0.00261
AGUUAGGGAUGGGAGCUCCAGCACAGAAAAAUGGACAGAAGGGCAGAGCAA | 0.00156
AGUUAGGGAUGGGAGCUCCAGCACAGACAAAUGGACAGAAGGGCAGAGCAA | 0.0045
AGUUAGGGAUGGGAGCUCCAGCACAGAUAAAUGGACAGAAGGGCAGAGCAA | 0.00161
AGUUAGGGAUGGGAGCUCCAGCACAGCGAAAUGGACAGAAGGGCAGAGCAA | 0.00674
AGUUAGGGAUGGGAGCUCCAGCACAGCAAAAUGGACAGAAGGGCAGAGCAA | 0.00952
AGUUAGGGAUGGGAGCUCCAGCACAGCCAAAUGGACAGAAGGGCAGAGCAA | 0.0122
AGUUAGGGAUGGGAGCUCCAGCACAGCUAAAUGGACAGAAGGGCAGAGCAA | 0.00816

Variant | exon inclusion enrichment index
AGUUAGGGAUGGGAGCUCCAGCACAGGGAAAUGGACAGAAGGGCAGAGCAA | 0.000925
AGUUAGGGAUGGGAGCUCCAGCACAGGAAAAUGGACAGAAGGGCAGAGCAA | 0.00077
AGUUAGGGAUGGGAGCUCCAGCACAGGCAAAUGGACAGAAGGGCAGAGCAA | 0.00084
AGUUAGGGAUGGGAGCUCCAGCACAGGUAAAUGGACAGAAGGGCAGAGCAA | 0.0007
AGUUAGGGAUGGGAGCUCCAGCACAGUGAAAAGGACAGAAGGGCAGAGCAA | 0.000886
AGUUAGGGAUGGGAGCUCCAGCACAGUGAAAAAGACAGAAGGGCAGAGCAA | 0.00102
AGUUAGGGAUGGGAGCUCCAGCACAGUGAAAACGACAGAAGGGCAGAGCAA | 0.0011
AGUUAGGGAUGGGAGCUCCAGCACAGUGAAAAUGACAGAAGGGCAGAGCAA | 0.00206
AGUUAGGGAUGGGAGCUCCAGCACAGUGAAACGGACAGAAGGGCAGAGCAA | 0.00508
AGUUAGGGAUGGGAGCUCCAGCACAGUGAAACAGACAGAAGGGCAGAGCAA | 0.00102
AGUUAGGGAUGGGAGCUCCAGCACAGUGAAACCGACAGAAGGGCAGAGCAA | 0.00477
AGUUAGGGAUGGGAGCUCCAGCACAGUGAAACUGACAGAAGGGCAGAGCAA | 0.00177
AGUUAGGGAUGGGAGCUCCAGCACAGUGAAAGGGACAGAAGGGCAGAGCAA | 0.00176
AGUUAGGGAUGGGAGCUCCAGCACAGUGAAAGAGACAGAAGGGCAGAGCAA | 0.00113
AGUUAGGGAUGGGAGCUCCAGCACAGUGAAAGCGACAGAAGGGCAGAGCAA | 0.00522
AGUUAGGGAUGGGAGCUCCAGCACAGUGAAAGUGACAGAAGGGCAGAGCAA | 0.000945
AGUUAGGGGUGGGAGCUCCAGCACAGUGAAAUGGACAGAAGGGCAGAGCAA | 0.00209
AGUUAGGGGAGGGAGCUCCAGCACAGUGAAAUGGACAGAAGGGCAGAGCAA | 0.00648
AGUUAGGGGCGGGAGCUCCAGCACAGUGAAAUGGACAGAAGGGCAGAGCAA | 0.00245
AGUUAGGGGGGGGAGCUCCAGCACAGUGAAAUGGACAGAAGGGCAGAGCAA | 0.0568
AGUUAGGGUUGGGAGCUCCAGCACAGUGAAAUGGACAGAAGGGCAGAGCAA | 0.00241
AGUUAGGGUAGGGAGCUCCAGCACAGUGAAAUGGACAGAAGGGCAGAGCAA | 0.00106
AGUUAGGGUCGGGAGCUCCAGCACAGUGAAAUGGACAGAAGGGCAGAGCAA | 0.00564
AGUUAGGGUGGGGAGCUCCAGCACAGUGAAAUGGACAGAAGGGCAGAGCAA | 0.493
AGUUAGGACUGGGAGCUCCAGCACAGUGAAAUGGACAGAAGGGCAGAGCAA | 0.0142
